Experimental data published in US10543284B2, “Anti-c-Met antibody and anti-c-Met antibody-cytotoxic drug conjugate and pharmaceutical use thereof” (Suzhou Suncadia Biopharmaceuticals Co., Ltd., priority 2015, dated 2020).

Test system: c-Met tyrosine residue 1349
Experiment: Agonist test: c-Met phosphorylation in A549 cells
Format: cell-based, human
Conditions: Antibody 20 μg/ml; activation by HGF (200 ng/ml) set as 100%
Experimental: The binding of HGF to c-Met activates both tyrosine phosphorylation of the c-Met molecule and the c-Met signaling pathway. Therefore, the activation of c-Met by HGF was used as a positive control of the agonist experiment, and human lung cancer cell line […] was used to evaluate the induced phophorylation of c-Met tyrosine residue 1349.
A549 cells were suspended in solution containing Ham's F12K, 2 mM glutamine (Invitrogen, #21127-022), and 10% (v/v) FBS (GIBCO, #10099141). 0.2 mL of cell suspension was taken and added to a 96-well plate (Corning, #3599), and the cell concentration was 60000 cells/well. The plate was incubated for 24 hours under 5% CO2 at 37° C. After 24 hours, the media in the 96-well plate was discarded, and 100 μl low serum medium (Ham's F12K+2 mM glutamine+0.5% FBS) was added. The cells were starved for 6 hours under 5% CO2 at 37° C. Antibodies were diluted using the above low serum medium to a final concentration of 20 μg/ml. The HGF concentration in the positive control was 200 ng/ml. The plate was incubated for 15 minutes at 37° C. […] After cell lysis, c-Met tyrosine phosphorylation was detected by ELISA. […] Data was read by a […] microplate reader (Supplier: Moleculer Devices; Model: MNR0643; Equip ID: TMRP001). […]

B1: Ab-9: humanized anti c-Met antibody: heavy chain sequence of SEQ ID NO: 23 and light chain sequence of SEQ ID NO: 26 (antibody)
heavy: QVTLKESGPVLVKPTETLTLTCTVSGFSLPNYGVHWVRQPPGKALEWLAVIWSGGSTNYAAAFVSRLRISKDTSKSQVVFTMNNMDPVDTATYYCARNHDNPYNYAMDYWGQGTTVTVSSASTKGPSVFPLAPCSRSTSESTAALGCLVKDYFPEPVTVSWNSGALTSGVHTFPAVLQSSGLYSLSSVVTVPSSNFGTQTYTCNVDHKPSNTKVDKTVERKCCVECPPCPAPPVAGPSVFLFPPKPKDTLMISRTPEVTCVVVDVSHEDPEVQFNWYVDGVEVHNAKTKPREEQFNSTFRVVSVLTVVHQDWLNGKEYKCKVSNKGLPAPIEKTISKTKGQPREPQVYTLPPSREEMTKNQVSLTCLVKGFYPSDIAVEWESNGQPENNYKTTPPMLDSDGSFFLYSKLTVDKSRWQQGNVFSCSVMHEALHNHYTQKSLSLSPGK
light: DIVLTQSPASLAVSPGQRATITCRANKSVSTSTYNYLHWYQQKPGQPPKLLIYLASNLASGVPARFSGSGSGTDFTLTINPVEANDTANYYCQHSRDLPPTFGQGTKLEIKRTVAAPSVFIFPPSDEQLKSGTASVVCLLNNFYPREAKVQWKVDNALQSGNSQESVTEQDSKDSTYSLSSTLTLSKADYEKHKVYACEVTHQGLSSPVTKSFNRGEC
modifications: Ab-9 heavy chain; Ab-9 light chain
Activation of c-Met phosphorylation (%): 29.9%
